Where two headings read alike, the source gives them in different places.
Tests used:
[1] = molecular target: SARS-CoV-2 delta plus variant RBD (SARS-CoV-2); test: ELISA; settings: remark: other sources report otherwise
[2] = molecular target: T1, SARS-CoV-2 delta variant B.1.617.2/3 RBD domain (SARS-CoV-2); test: ELISA; settings: remark: other sources report otherwise
[3] = molecular target: T2, SARS-CoV-2 kappa variant B.1.617.1/3 RBD domain (SARS-CoV-2); test: ELISA; settings: remark: other sources report otherwise
[4] = molecular target: T3, SARS-CoV-2 omicron variant B.1.1.529 RBD domain (SARS-CoV-2); test: ELISA; design: unit not given beside the values; settings: remark: other sources report otherwise
[5] = molecular target: T4, SARS-CoV-2 omicron variant B.1.1.529 Spike ectodomain (tri-S, HexaPro) (SARS-CoV-2), P0DTC2; test: ELISA; design: unit not given beside the values; settings: remark: other sources report otherwise
[6] = molecular target: SARS-CoV-2 delta plus variant RBD (SARS-CoV-2); test: ELISA; design: unit not given beside the values; settings: remark: other sources report otherwise
[7] = molecular target: T1, SARS-CoV-2 delta variant B.1.617.2/3 …; test: ELISA; design: unit not given beside the values; settings: remark: other sources report otherwise
[8] = molecular target: T2, SARS-CoV-2 kappa variant B.1.617.1/3 …; test: ELISA; design: unit not given beside the values; settings: remark: other sources report otherwise
[9] = molecular target: SARS-CoV-2 delta plus variant RBD (SARS-CoV-2); test: ELISA; design: unit not given beside the values; settings: remark: other sources report otherwise; remark: listed apart in the source
[10] = molecular target: T1, SARS-CoV-2 delta variant B.1.617.2/3 …; test: ELISA; design: unit not given beside the values; settings: remark: other sources report otherwise; remark: listed apart in the source
[11] = molecular target: T2, SARS-CoV-2 kappa variant B.1.617.1/3 …; test: ELISA; design: unit not given beside the values; settings: remark: other sources report otherwise; remark: listed apart in the source
[12] = molecular target: SARS-CoV-2 delta plus variant RBD (SARS-CoV-2); test: RBD/ACE2 blocking ELISA; settings: remark: other sources report otherwise
[13] = molecular target: T1, SARS-CoV-2 delta variant B.1.617.2/3 …; test: RBD/ACE2 blocking ELISA; settings: remark: other sources report otherwise
[14] = molecular target: T2, SARS-CoV-2 kappa variant B.1.617.1/3 …; test: RBD/ACE2 blocking ELISA; settings: remark: other sources report otherwise
[15] = molecular target: SARS-CoV-2 delta plus variant RBD (SARS-CoV-2); test: RBD-ACE2 competition ELISA; design: unit not given beside the values; settings: remark: other sources report otherwise
[16] = molecular target: T1, SARS-CoV-2 delta variant B.1.617.2/3 …; test: RBD-ACE2 competition ELISA; design: unit not given beside the values; settings: remark: other sources report otherwise
[17] = molecular target: T2, SARS-CoV-2 kappa variant B.1.617.1/3 …; test: RBD-ACE2 competition ELISA; design: unit not given beside the values; settings: remark: other sources report otherwise
[18] = molecular target: T4, SARS-CoV-2 omicron variant B.1.1.529 …; test: tri-S/ACE2 blocking ELISA [B]; settings: remark: other sources report otherwise
[19] = molecular target: SARS-CoV-2 Omicron subvariant BA.2 RBD (SARS-CoV-2); test: competition ELISA, biotinylated RBD to immobilized ACE2 ectodomain; settings: remark: other sources report otherwise
[20] = molecular target: SARS-CoV-2 delta plus variant RBD (SARS-CoV-2); test: as above; settings: remark: other sources report otherwise
[21] = molecular target: T1, SARS-CoV-2 delta variant B.1.617.2/3 …; test: as above; settings: remark: other sources report otherwise
[22] = molecular target: T2, SARS-CoV-2 kappa variant B.1.617.1/3 …; test: as above; settings: remark: other sources report otherwise
[23] = molecular target: T3, SARS-CoV-2 omicron variant B.1.1.529 …; test: as above; settings: remark: other sources report otherwise
[24] = molecular target: T4, SARS-CoV-2 omicron variant B.1.1.529 …; test: competition ELISA, biotinylated tri-S to immobilized ACE2 ectodomain; settings: remark: other sources report otherwise
[25] = molecular target: T1, SARS-CoV-2 delta variant B.1.617.2/3 …; test: RBD-ACE2 competition ELISA [letter not given]; settings: remark: other sources report otherwise
[26] = molecular target: SARS-CoV-2 δ variant spike protein, cell-expressed (SARS-CoV-2); test: flow cytometry (Mock 2.5)
α (SARS-CoV-2) = test: flow cytometry (Mock 2.5)
β (SARS-CoV-2) = test: flow cytometry (Mock 2.5)
γ (SARS-CoV-2) = test: flow cytometry (Mock 2.5)
ε (SARS-CoV-2) = test: flow cytometry (Mock 2.5)
ι (SARS-CoV-2) = test: flow cytometry (Mock 2.5)
κ (SARS-CoV-2) = test: flow cytometry (Mock 2.5)
[27] = molecular target: T3, SARS-CoV-2 omicron variant B.1.1.529 …; test: ELISA; unit from paragraph 452, none printed in the heatmap; settings: remark: other sources report otherwise
[28] = molecular target: T4, SARS-CoV-2 omicron variant B.1.1.529 …; settings: remark: other sources report otherwise
[29] = molecular target: T4, SARS-CoV-2 omicron variant B.1.1.529 …; test: ELISA; unit from paragraph 452, none printed in the heatmap; settings: remark: other sources report otherwise

B1: Cv2.3194 (recombinant human IgG1) (antibody)
heavy: EVQLVESGGGLIQPGGSLRLSCAASGITVTSNYMSWVRQAPGKGLEWVSVIYPGGSTFYADSVKGRFTISRDNSKNTLYLQMNSLRAEDTAVYYCARDLVVYGMDVWGQGTTVTVSSASTKGPSVFPLAPSSKSTSGGTAALGCLVKDYFPEPVTVSWNSGALTSGVHTFPAVLQSSGLYSLSSVVTVPSSSLGTQTYICNVNHKPSNTKVDKKVEPKSCDKTHTCPPCPAPELLGGPSVFLFPPKPKDTLMISRTPEVTCVVVDVSHEDPEVKFNWYVDGVEVHNAKTKPREEQYNSTYRVVSVLTVLHQDWLNGKEYKCKVSNKALPAPIEKTISKAKQPREPQVYTLPPSRDELTKNQVSLTCLVKGFYPSDIAVEWESNGQPENNYKTTPPVLDSDGSFFLYSKLTVDKSRWQQGNVFSCSVMHEALHNHYTQKSLSLSPGK
light: EIVLTQSPGTLSLSPGERATLSCRASQSVSSSYLAWYQQKPGQAPRLLIYGASSRATGIPGRFSGSGSGTDFTLTISRLEPEDFAIYYCQQGVTFGGGTKVEIKRTVAAPSVFIFPPSDEQLKSGTASVVCLLNNFYPREAKVQWKVDNALQSGNSQESVTEQDSKDSTYSLSSTLTLSKADYEKHKVYACEVTHQGLSSPVTKSFNRGEC
OD405nm [1]: 3.5
OD405nm [2]: 3.4
OD405nm [3]: 3.6
AUC [4]: 10
AUC [5]: 12
AUC [6]: 3
AUC [7]: 3
AUC [8]: 4
AUC (RBD bind.) [9]: 13
AUC (RBD bind.) [10]: 13
AUC (RBD bind.) [11]: 13
% binding inhibition [12]: 94%
% binding inhibition [13]: 94%
% binding inhibition [14]: 92%
AUC (RBD block.) [15]: 141
AUC (RBD block.) [16]: 102
AUC (RBD block.) [17]: 128
AUC of blocking [18]: 76
IC50 [19]: 2.71 µg/mL
IC90 [19]: 29.1 µg/mL
IC50 [20]: 0.28 µg/mL
IC90 [20]: 0.967 µg/mL
IC50 [21]: 0.827 µg/mL
IC90 [21]: 1.31 µg/mL
IC50 [22]: 0.469 µg/mL
IC90 [22]: 1.1 µg/mL
IC50 [23]: 6.53 µg/mL
IC90 [23]: 37.6 µg/mL
IC50 [24]: 0.876 µg/mL
IC90 [24]: 1.2 µg/mL

B2: Cv2.5213 (recombinant human IgG1) (antibody)
heavy: EVQLVESGGGLIQPGGSLRLSCAASGFTVSSNYMSWVRQAPGKGLEWVSLIYSGGSTYYADSVKGRFTISRDNSKNTLYLQMNSLRAEDTAVYYCARDLNYYGMDVWGQGATVTVSSASTKGPSVFPLAPSSKSTSGGTAALGCLVKDYFPEPVTVSWNSGALTSGVHTFPAVLQSSGLYSLSSVVTVPSSSLGTQTYICNVNHKPSNTKVDKKVEPKSCDKTHTCPPCPAPELLGGPSVFLFPPKPKDTLMISRTPEVTCVVVDVSHEDPEVKFNWYVDGVEVHNAKTKPREEQYNSTYRVVSVLTVLHQDWLNGKEYKCKVSNKALPAPIEKTISKAKQPREPQVYTLPPSRDELTKNQVSLTCLVKGFYPSDIAVEWESNGQPENNYKTTPPVLDSDGSFFLYSKLTVDKSRWQQGNVFSCSVMHEALHNHYTQKSLSLSPGK
light: not shown
AUC [4]: 1
AUC [5]: 2
AUC (RBD bind.) [9]: 12
AUC (RBD bind.) [10]: 13
AUC (RBD bind.) [11]: 13
AUC (RBD block.) [15]: 33
AUC (RBD block.) [16]: 91
AUC (RBD block.) [17]: 150
AUC of blocking [18]: 10
IC50 (read off the curve) [25]: 1 µg/mL

B3: Imdevimab (antibody, V domains shown)
VH: QVQLVESGGGVVQPGRSLRLSCAASGFTFSNYAMYWVRQAPGKGLEWVAVISYDGSNKYYADSVKGRFTISRDNSKNTLYLQMNSLRTEDTAVYYCASGSDYGDYLLVYWGQGTLVTVSS
VL: QSALTQPASVSGSPGQSITISCTGTSSDVGGYNYVSWYQQHPGKAPKLMIYDVSKRPSGVSNRFSGSKSGNTASLTISGLQSEDEADYYCNSLTSISTWVFGGGTKLTVL
log10 ΔgMFI [26]: 4.5
log10 ΔgMFI (α (SARS-CoV-2)): 4.4
log10 ΔgMFI (β (SARS-CoV-2)): 3.9
log10 ΔgMFI (γ (SARS-CoV-2)): 4.6
log10 ΔgMFI (ε (SARS-CoV-2)): 4.5
log10 ΔgMFI (ι (SARS-CoV-2)): 4.9
log10 ΔgMFI (κ (SARS-CoV-2)): 4.7

B4: Cilgavimab (antibody, V domains shown)
VH: EVQLVESGGGLVKPGGSLRLSCAASGFTFRDVWMSWVRQAPGKGLEWVGRIKSKIDGGTTDYAAPVKGRFTISRDDSKNTLYLQMNSLKTEDTAVYYCTTAGSYYYDTVGPGLPEGKFDYWGQGTLVTVSS
VL: not shown
OD405nm [1]: 3.5
OD405nm [3]: 3.7
EC50 [27]: 0.027 µg/mL

B5: Adintrevimab (antibody, V domains shown)
VH: EVQLVESGGGLVKPGGSLRLSCAASGFTFSSYYMNWVRQAPGKGLEWVSSISEDGYSTYYPDSLKGRFTISRDSAKNSLYLQMNSLRADDTAVYYCARDFSGHTAWAGTGFEYWGQGTLVTVSS
VL: QSVLTQPPSVSGAPGQRITISCTGSSSNIGAGYDVHWYQQLPGTAPKLLIYGSSSRNSGVPDRFSGSKSGTSASLAITGLQAEDEADYYCQSYDSSLSVLYTFGTGTKVTVL
IC50 [28]: > 2 µg/mL
OD405nm [1]: 3.4
OD405nm [2]: 3.4
OD405nm [3]: 3.6
EC50 [27]: 0.056 µg/mL
EC50 [29]: 0.009 µg/mL

— patent publication US20240336672A1
